Experiments:
[1] = molecular target: human Notch2 on U-87 MG cells (human, UniProt Q04721 26-2471); assay: cell-based or functional assay
huNotch1 = molecular target: T1, huNotch1 (human); assay: SPR
T1 construct: The entry named huNotch1 is a tagged EGF-repeat fragment; also called human Notch1
T1 chain: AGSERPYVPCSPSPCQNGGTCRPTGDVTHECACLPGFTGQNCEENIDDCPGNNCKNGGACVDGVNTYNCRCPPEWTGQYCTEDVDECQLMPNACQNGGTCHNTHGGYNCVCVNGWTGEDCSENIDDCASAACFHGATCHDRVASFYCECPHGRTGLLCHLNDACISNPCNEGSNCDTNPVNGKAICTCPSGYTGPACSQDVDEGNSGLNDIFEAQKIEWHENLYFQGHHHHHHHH

huNotch3 = molecular target: T2, huNotch3 (human); assay: SPR
T2 construct: The entry named huNotch3 is a tagged EGF-repeat fragment; also called human Notch3
T2 chain: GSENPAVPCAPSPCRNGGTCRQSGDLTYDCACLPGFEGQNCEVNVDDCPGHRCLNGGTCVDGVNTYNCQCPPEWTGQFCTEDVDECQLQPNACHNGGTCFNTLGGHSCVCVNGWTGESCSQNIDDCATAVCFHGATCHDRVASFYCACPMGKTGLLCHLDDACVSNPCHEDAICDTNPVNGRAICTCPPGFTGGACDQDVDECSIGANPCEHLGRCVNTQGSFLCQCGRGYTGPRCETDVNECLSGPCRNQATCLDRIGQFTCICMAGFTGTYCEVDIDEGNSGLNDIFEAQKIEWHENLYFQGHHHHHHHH

huNotch2-EGF6-10 = molecular target: T3, huNotch2-EGF6-10 (human, UniProt Q04721 219-418); assay: SPR BIAcore T200, antibody captured on protein A, 37 C
T3 construct: also called human Notch2 EGF6-10
T3 sequence: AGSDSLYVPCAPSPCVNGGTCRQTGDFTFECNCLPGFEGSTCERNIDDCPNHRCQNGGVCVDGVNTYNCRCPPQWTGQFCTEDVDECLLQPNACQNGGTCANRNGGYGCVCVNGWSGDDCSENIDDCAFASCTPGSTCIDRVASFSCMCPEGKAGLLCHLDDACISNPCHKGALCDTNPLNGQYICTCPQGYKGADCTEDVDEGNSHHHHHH

Chain of human Notch2 on U-87 MG cells (Q04721 26-2471): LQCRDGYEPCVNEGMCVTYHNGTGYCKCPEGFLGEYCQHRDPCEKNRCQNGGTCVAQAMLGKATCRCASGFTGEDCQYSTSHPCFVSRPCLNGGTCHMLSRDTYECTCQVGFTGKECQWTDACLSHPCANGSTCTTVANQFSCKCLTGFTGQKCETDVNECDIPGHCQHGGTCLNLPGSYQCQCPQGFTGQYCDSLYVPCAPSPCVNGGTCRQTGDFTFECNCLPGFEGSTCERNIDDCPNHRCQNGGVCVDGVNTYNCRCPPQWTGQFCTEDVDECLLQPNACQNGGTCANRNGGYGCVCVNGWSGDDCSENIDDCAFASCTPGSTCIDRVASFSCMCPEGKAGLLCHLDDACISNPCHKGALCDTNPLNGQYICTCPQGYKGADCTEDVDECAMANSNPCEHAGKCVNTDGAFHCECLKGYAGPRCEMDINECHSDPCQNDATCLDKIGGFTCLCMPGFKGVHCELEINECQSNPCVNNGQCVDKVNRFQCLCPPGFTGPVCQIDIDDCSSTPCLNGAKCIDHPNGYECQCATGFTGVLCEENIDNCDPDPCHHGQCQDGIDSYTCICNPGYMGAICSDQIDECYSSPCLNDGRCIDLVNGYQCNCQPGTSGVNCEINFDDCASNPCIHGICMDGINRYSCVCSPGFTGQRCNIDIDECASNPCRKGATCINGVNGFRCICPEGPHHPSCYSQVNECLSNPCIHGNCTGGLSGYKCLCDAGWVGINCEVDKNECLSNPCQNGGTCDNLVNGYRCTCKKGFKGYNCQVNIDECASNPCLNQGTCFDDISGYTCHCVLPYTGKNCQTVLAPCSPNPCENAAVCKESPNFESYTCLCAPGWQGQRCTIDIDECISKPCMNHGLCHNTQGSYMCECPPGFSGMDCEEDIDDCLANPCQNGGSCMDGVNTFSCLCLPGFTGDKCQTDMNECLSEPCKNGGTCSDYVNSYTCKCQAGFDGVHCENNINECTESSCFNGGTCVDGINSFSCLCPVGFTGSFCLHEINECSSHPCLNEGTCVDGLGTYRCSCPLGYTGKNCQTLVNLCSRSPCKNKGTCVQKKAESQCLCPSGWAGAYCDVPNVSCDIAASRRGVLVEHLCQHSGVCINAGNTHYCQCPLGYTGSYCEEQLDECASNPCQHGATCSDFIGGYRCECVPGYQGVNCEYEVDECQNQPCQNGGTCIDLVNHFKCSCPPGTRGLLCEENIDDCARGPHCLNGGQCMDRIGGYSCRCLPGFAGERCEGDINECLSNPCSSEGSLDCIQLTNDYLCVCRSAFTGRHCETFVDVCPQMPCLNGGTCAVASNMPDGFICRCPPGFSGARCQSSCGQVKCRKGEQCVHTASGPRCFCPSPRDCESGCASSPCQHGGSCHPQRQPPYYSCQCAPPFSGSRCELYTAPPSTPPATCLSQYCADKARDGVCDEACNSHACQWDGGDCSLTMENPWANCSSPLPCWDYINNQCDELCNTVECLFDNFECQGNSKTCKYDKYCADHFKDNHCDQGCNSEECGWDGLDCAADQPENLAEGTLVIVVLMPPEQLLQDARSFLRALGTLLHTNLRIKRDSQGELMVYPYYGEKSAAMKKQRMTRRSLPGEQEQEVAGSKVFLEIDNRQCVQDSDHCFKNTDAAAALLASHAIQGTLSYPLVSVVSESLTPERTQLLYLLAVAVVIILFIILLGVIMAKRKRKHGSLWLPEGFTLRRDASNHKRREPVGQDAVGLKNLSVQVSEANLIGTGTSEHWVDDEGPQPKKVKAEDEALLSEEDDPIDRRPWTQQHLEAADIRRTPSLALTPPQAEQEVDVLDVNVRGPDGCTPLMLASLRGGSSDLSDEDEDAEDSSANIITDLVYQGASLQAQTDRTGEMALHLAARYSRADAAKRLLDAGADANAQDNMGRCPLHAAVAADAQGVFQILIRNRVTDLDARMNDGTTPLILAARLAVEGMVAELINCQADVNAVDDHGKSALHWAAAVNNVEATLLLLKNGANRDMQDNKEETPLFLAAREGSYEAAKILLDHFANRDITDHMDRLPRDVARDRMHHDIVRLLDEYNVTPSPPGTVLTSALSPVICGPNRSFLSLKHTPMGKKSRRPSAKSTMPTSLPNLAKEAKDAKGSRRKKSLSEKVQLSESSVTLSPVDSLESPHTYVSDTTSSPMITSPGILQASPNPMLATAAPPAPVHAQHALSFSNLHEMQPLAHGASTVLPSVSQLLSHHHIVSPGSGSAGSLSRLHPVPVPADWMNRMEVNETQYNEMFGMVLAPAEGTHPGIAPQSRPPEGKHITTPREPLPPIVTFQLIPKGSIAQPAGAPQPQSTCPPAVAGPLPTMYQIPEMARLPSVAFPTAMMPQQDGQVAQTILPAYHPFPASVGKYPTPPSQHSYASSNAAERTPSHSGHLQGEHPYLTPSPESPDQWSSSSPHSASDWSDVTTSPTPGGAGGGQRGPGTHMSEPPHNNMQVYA

B1: hu1B2.v101 (antibody, V domains shown)
VH: EVQLVESGGGLVQPGGSLKLSCAVSGFTFSDFYMEWVRQASGKGLEWVAAQRNKANDFSIVYSASVKDRFTISRDDSKSTLYLQMNSLKTEDTAVYYCSRDGGRWGLDAWGQGTLVTVSS
VL: DIQMTQSPSSVSASVGDRVTITCQTSEDIYSGLAWYQQKPGKSPKLLIYGASRLQDGVPSRFSGSGSGTDYTLTISSLQPEDFATYYCQQGFKYPLTFGGGTKVEIK
notes: Human IgG1 backbone
Jagged1 IC50 [1]: 3.02 nM
binding result (huNotch1): no binding
binding result (huNotch3): no binding
Kd (huNotch2-EGF6-10): 2.84 nM
koff (huNotch2-EGF6-10): 0.000813 s⁻¹
kon (huNotch2-EGF6-10): 286000 M⁻¹ s⁻¹

B2: hu1B2.v103 (antibody, V domains shown)
VH: EVQLVESGGGLVQPGGSLKLSCAVSGFTFSDFYMEWVRQASGKGLEWVAAQRNKANDFSIVYSASVKDRFTISRDDSKSTLYLQMNSLKTEDTAVYYCSRDGGKWGLDAWGQGTLVTVSS
VL: DIQMTQSPSSVSASVGDRVTITCQTSEDIYSGLAWYQQKPGKSPKLLIYGASRLQDGVPSRFSGSGSGTDYTLTISSLQPEDFATYYCQQGFKYPLTFGGGTKVEIK
notes: Human IgG1 backbone
Jagged1 IC50 [1]: 1.8 nM
binding result (huNotch1): no binding
binding result (huNotch3): no binding
Kd (huNotch2-EGF6-10): 3.08 nM
koff (huNotch2-EGF6-10): 0.000817 s⁻¹
kon (huNotch2-EGF6-10): 265000 M⁻¹ s⁻¹

From patent US20230322958A1 (Genentech, published 2023)
